Experimental data published in the supplement of paper PMC9170038.

System: K4 kissing-loop RNA reporter
Experiment: apparent KD of K4 kissing-loop reporter; higher = weaker reporter binding
Conditions: Eterna round: R107
Description: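 RNA-MaP round R107: designed RNA switches with theophylline, tryptophan, arginine or FMN aptamers are transcribed on-chip within common flanks. They are titrated with a labelled K4 kissing-loop RNA reporter in RNA-MaP buffer (100 mM Tris pH 7.5, 80 mM KCl, 4 mM MgCl2), without ligand or with the indicated ligand. Median apparent KD per design.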

[1] = input ligand: theophylline 20 uM
[2] = input ligand: tryptophan 2.4 mM
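Note: bound reporter read as fluorescence of individual clusters on recovered sequencing chips by microscopy, with normalized cluster intensities fitted with a binding model.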

Row | Sequence | apparent KD of K4 kissing-loop reporter (input ligand: FMN 200 uM) | apparent KD of K4 kissing-loop reporter (input ligand: arginine 13.2 mM) | apparent KD of K4 kissing-loop reporter (input ligand: none) | apparent KD of K4 kissing-loop reporter [1] | apparent KD of K4 kissing-loop reporter [2]
1 | AUACAGCGACGCGCUAGUGAUGUUAGCGAAGGAGCGACUCAUGAGUCAGGUAGGUCGCGCUAACGUGGUUACGAGAGUAACCAGU [Arg A Ex t1a] | 93.3 nM | 86.8 nM | 93.6 nM | 80.1 nM | 89.4 nM
2 | AUCAGUUCAGCUGAUACCAGUCAGGAGUGAUGUUCCUGCUCGCGUCAGCCGCGUCGACAAGACCCUUGGCAGCAGCUCUAAGUGU [theeternabot_exclusion_KL_Theo_B_40] | 114 nM | 98.1 nM | 110 nM | 103 nM | 110 nM
3 | AUCCAUAGUGAUGUUGUGAGCGGAGGCACCAAGGAUAUUGCCAGCCCAAGAAGGUGGGUCCCACACACCAGGCAUACAAGUCCGG [theeternabot_exclusion_KL_FMN_A_43] | 1040 nM | 845 nM | 1160 nM | 944 nM | 837 nM
4 | AUCGUUGUCUGAGGAUAUCGGUUAUCUGUAGUGAUGUUACAGUAUAUUGAUAUUAAAGUUUCUAUUCGAGAAGGCAGACUACGUA [JR_Nu_ExcFMNB_Sub022] | 71.4 nM | 65.4 nM | 72.1 nM | 58.9 nM | 71.9 nM
5 | AUCGUUGUCUGAGGAUAUCGGUUAUCUGUAGUGAUGUUACAGUAUAUUGAUAUUAUAGUUUCUUUUCGAGAAGGCAGACUACGUA [JR_Nu_ExcFMNB_Sub021] | 74.1 nM | 61.3 nM | 68.9 nM | 65.4 nM | 66.4 nM
6 | AUGAGGAGCAGUGAUCCUAUUCCAUGGGAAGGAGCGUAGGAUACUACAGGUAGGUCGCCCAGUGAUGUUGGGCGCGUGCUCUUGG [Zaqua] | 159 nM | 133 nM | 133 nM | 178 nM | 146 nM
7 | AUGCGACGUGCGGCCGCCACUCGGAUGCGAGUGAUGUUCGCGGGACGGACGCAAGUCCGUCAUUCGAGGACCGGGCAUCGGUGUA [#2 Same State - Tryptophan B Attempt #2 (HarryS)] | 555 nM | 462 nM | 636 nM | 512 nM | 139 nM
8 | AUGCGCAGCCUGCUUACGUAUGAGCCGGAAGGAGCGGCAGAAUUGCCAGGUAGGUCGCCGGCCCAGUGAUGUUGGGAUGGUGUGG [Atusqubela] | 279 nM | 167 nM | 343 nM | 419 nM | 264 nM
9 | AUGCUUUUAAUAACACUAUAUACAGCUGAAGGAGCGACAAUAAAGUCAGGUAGGUCGCAGAAUAGAUGAGUGAUGUUCAUUUUUA [#05 K4 Arginine A Exclusion] | 92.8 nM | 178 nM | 118 nM | 166 nM | 76.9 nM
10 | AUGGUAUUGCGAGGAUAUCCUUCAAACGUGACACUAACGGCAGUGAUGUUGCCGGCGUCGAUCAGAGGAGAAGGCGCGGUGUUAU [Exclusion FMN B GF 23] | 118 nM | 117 nM | 122 nM | 125 nM | 119 nM
11 | AUGUCUUAUAAACUCGUGGUUUCGAUCGAUACCAGUAGCGAGAGUUACCCUUGGCAGCGACAUGAGUGAUGUUCAUGUACGAAGA [KL-XTheoA4] | 96.1 nM | 89 nM | 94.3 nM | 90.2 nM | 92.9 nM
12 | AUUAAUAUCACGGCCGCCACUGAAUAUUGUUUUUAUAUUUAGAAAUCUUGCCAGUGAUGUUGGAUCAGGACCGGGUGAGUUUAUA [JR_SSTryptoB_Sub006] | 613 nM | 439 nM | 463 nM | 424 nM | 444 nM
13 | AUUCGUUUAUGUGAUACCAGACUUUGCAGUGAUGUUGCUUUAAUUAAAGAUGUUUAGUUUGUCCCUUGGCAGCACUAUUUAUUUA [JR_SSTheophyB_Sub001] | 54 nM | 113 nM | 68.4 nM | 129 nM | 48.8 nM
14 | AUUUGUUUAUGUGAUACCAGACUUUGCAGUGAUGUUGCAUUUAUUUUAGAAGAAUAGUUUGUCCCUUGGCAGCACUAUGUAUUUA [JR_SSTheophyB_Sub006] | 44.9 nM | 98.2 nM | 49.3 nM | 80.7 nM | 41.5 nM
15 | AUUUUUUUGUCAGGAUAUUAGUAUGCUUUUGGUUUGUUAGUGAUGUUGAUAUUUUGUUUAUGUAUUUAAGAAGGGAUUUAGCGGU [etvuumullin] | 409 nM | 276 nM | 362 nM | 371 nM | 255 nM
16 | AUUUUUUUGUCAGGAUAUUAGUGUGCGUUUGGUUUGUUAGUGAUGUUGAUAUUUGGUUUAUGUAUUUAAGAAGGGAUUUAGCGGU [dhbbtemullin] | 557 nM | 480 nM | 562 nM | 582 nM | 357 nM
17 | CAAACGUGCGGUAGGUUCAAGCGCUGGGAAGGAGCGCAGAUGACUGCAGGUAGGUCGCCCAGUGAUGUUGGGCUUUCCACCUACG [Dilausma] | 138 nM | 123 nM | 119 nM | 138 nM | 99.9 nM
18 | CACAGAUCCUAAGGAUAUGGAGUGAUGUUCGCAAGUUCUUGGUGUGCAUUCAUCUGUCCUAUCAACCCAGAAGGUAGGAAGUCAC [theeternabot_exclusion_KL_FMN_B_1] | 607 nM | 516 nM | 550 nM | 993 nM | 604 nM
19 | CACCAUGAAUUCUCUAGGAGUGAUGUUUUUCGAGGACCGGUACGGCCGCCACUCGGACGAGGACCGUGGGAGCGGCGAACCGACU [ddfgmullin] | 172 nM | 74.7 nM | 208 nM | 334 nM | 150 nM
20 | CAGGCGACUAUCGAUACCAGAUGAUAUCGACUACUUGAGUGAUGUUCGAUUAAAGGCAUUAUCCCUUGGCAGCGACUGGACACAU [theeternabot_sameState_KL_Theo_B_24] | 706 nM | 505 nM | 667 nM | 659 nM | 414 nM
21 | CAGGUGCUGAUGCGGUGGCCGGUGGUCGUGCGAGGACCGGUACGGCCGCCACUCGCAUGAGUGAUGUUCAUGUGUCGUCGUCGUC [whbob_EX_Tryp_A_t2] | 229 nM | 136 nM | 188 nM | 192 nM | 223 nM

Row | Sequence | apparent KD of K4 kissing-loop reporter (input ligand: FMN 200 uM) | apparent KD of K4 kissing-loop reporter (input ligand: arginine 13.2 mM) | apparent KD of K4 kissing-loop reporter (input ligand: none) | apparent KD of K4 kissing-loop reporter [1] | apparent KD of K4 kissing-loop reporter [2]
22 | CAUACGCAUGGAGGAUAUGAGAUUACUCGUAUCAUUUAAUAUUCUCAGUGAUGUUGAGAUUUGGGCUCAGAAGGCCAUGUGUAUG [Ex FMN B 16] | 393 nM | 261 nM | 290 nM | 324 nM | 288 nM
23 | CAUACGCAUGGAGGAUAUGAGAUUUCUCAUGUCAUUUAAUAUUCUCAGUGAUGUUGAGAAUUUGGCUCAGAAGGCCAUGUGUAUG [Ex FMN B 20] | 254 nM | 465 nM | 508 nM | 426 nM | 403 nM
24 | CAUAGGAAACUAUGUUUCUCUCUUACUGAAGGAGCGCGUGAAAACGCAGGUAGGUCGCAGAAUUUGAGAGUGAUGUUCUCAAUAA [Ex Arginine A K4 13] | 114 nM | 149 nM | 151 nM | 167 nM | 116 nM
25 | CAUGUGUCUAUUACGAUGGAUACAUAUACUGAGGAUAUCACAUUUAUGAGAAGGCAGUAAACUGCGAGUGAUGUUCGCAGUACGU [FMN A SS t8] | 159 nM | 204 nM | 214 nM | 316 nM | 248 nM
26 | CCAAGCGUCAGCGAUACCAGAAUUCUAGUGAUGUUAGGUUCUGUCAUUGUACUAGCAGUGUUCCCUUGGCAGCGCGUGAUAGGCA [theeternabot_exclusion_KL_Theo_B_16] | 170 nM | 121 nM | 140 nM | 173 nM | 138 nM
27 | CCAGAAUGAUGAAGAUGAUAAAUUACUGAAGGAGCGCAUAUAGUUGCAGGUAGGUCGCGGUGAAUAAGUAUAGUGAUGUUAUACC [SSArgA.Ac] | 265 nM | 167 nM | 221 nM | 217 nM | 204 nM
28 | CCAGUUUGAGUGAUGUUCAGGCAUUGGUACGAGGAUAUCGAGGAGUUGAGAAGGCGUACUACUCAACUAUGUAUGAAUACAUACC [FMN A Ex t2] | 224 nM | 89 nM | 125 nM | 126 nM | 116 nM
29 | CCAUCGCUAUUCGAUACCAGUCAUUUUUUAUUUUAUUUUUUUUUUGGAGUGAUGUUCCAAGACCCUUGGCAGCGAAUAGUGAUGG [whbob_SS_Theo_B_th78] | 119 nM | 130 nM | 113 nM | 139 nM | 106 nM
30 | CCAUUCAUUUACGAUACCAGUCUAAUAUAUUUAAUCAAAACCCUCGCCGAGUGAUGUUCGGACCCUUGGCAGCGUCUGCGACAGG [cyycmullin] | 354 nM | 333 nM | 334 nM | 399 nM | 227 nM
31 | CCGAAGAACCAGUGAUGUUGGUUGACUAGACAGGAUAUGAGCAACAUCAGAAGGGUCUGGCUUCGGGAGUGAGUCGCGCUGACUU [Reverigeed] | 260 nM | 192 nM | 319 nM | 254 nM | 314 nM
32 | CCGGACACCUCGGAUACCAGCCUGAGUGAUGUUCAAGCUGAACUCUCUUAAUAGGUCACCGGCCCUUGGCAGCCGCAUCCUAAGC [theeternabot_exclusion_KL_Theo_B_46] | 375 nM | 269 nM | 353 nM | 310 nM | 313 nM
33 | CCGGAUUAUGCGGCCGCCACUGAGAAAUUGGAGGUACGCCCUCCCGAUAGUGAUGUUAUCCAUUACAGGACCGGGCAUCUCCUCU [theeternabot_sameState_KL_Trp_B_23] | 779 nM | 421 nM | 893 nM | 500 nM | 325 nM
34 | CCUAUCUCAUACGAUACCAGUCCGAGUGAUGUUCGAACAUAAAUUAGUUUGCCAUAUAAUGACCCUUGGCAGCGUAUGGGAUAGG [Ex Theophylline B K4 12] | 576 nM | 448 nM | 550 nM | 623 nM | 522 nM
35 | CGAAUGGAACUAUUGAACAUUUGUAUUGGCAAGGAUAUCGGGCUAUCGAGAAGGUGCUAUUUGGGCAGUGAUGUUGCCGAUUUAA [theeternabot_sameState_KL_FMN_A_10] | 43.3 nM | 94.4 nM | 54.1 nM | 90.9 nM | 50 nM
36 | CGAGCGCGUGCGGCCGCCACUACUAUAAGUCGUCCAAGUUAGUGAUGUUGACUGAACGUCGGAAAUAGGACCGGGCAUAGUUUUA [theeternabot_sameState_KL_Trp_B_40] | 351 nM | 410 nM | 420 nM | 415 nM | 300 nM
37 | CGAGUCGGUUCAGAUACCAGCCAAUUAGAGUCGAGUGAUGUUCGACAAUGAACGUCCAAAGGCCCUUGGCAGCUGGAUUGGGAAC [Same State Theophylline B GF 20] | 157 nM | 61.1 nM | 104 nM | 112 nM | 171 nM
38 | CGAGUGAUGUUCGUUUUUUACUUUUUUUGACAGGAUAUGCGGAAACGCAGAAGGGUCACCUUUGAGUUAAAAGAAGUUAUUUUUU [Ex FMN A 18] | 262 nM | 267 nM | 317 nM | 271 nM | 249 nM
39 | CGAUGUUCCUGGGAUACCAGUCGGAGUCUCAGAGCUCGGAGUGAUGUUCUGGGAUGUUUCGGCCCUUGGCAGCUCUGGGACUCCU [#2 Exclusion - Theophylline B Attempt #22 (HarryS)] | 881 nM | 630 nM | 819 nM | 840 nM | 662 nM
40 | CGCAGUGAUGUUGCGAGUAGCUACAGGGAAGGAGCGUGCUAGAGCACAGGUAGGUCGCCCACUGGGUCAGUGAUGUUGGUCGGGU [Same State Arginine A GF 29] | 201 nM | 166 nM | 180 nM | 171 nM | 171 nM
41 | CGCAGUGAUGUUGCUAUUAUUCUUGAUUAACGAGGACCGGUACGGCCGCCACUCGGUUUCUAUCUGAUCCAGCGUUUUGUUGAGU [#23 K4 Tryptophan A Exclusion] | 474 nM | 562 nM | 638 nM | 620 nM | 335 nM
42 | CGCAGUGAUGUUGCUAUUAUUCUUGGUUAACGAGGACCGGUACGGCCGCCACUCGAUUUCUGUCUAGUCCAGUGUUUUUUUGAGU [whbob_EX_Tryp_A_t7] | 363 nM | 464 nM | 439 nM | 492 nM | 263 nM
